Assay results from US20020151497.

Experiments:
[1] = target: T1, CD19, endogenous, immunoprecipitated from WEHI-231 cells (UniProt P25918)
T1 sequence: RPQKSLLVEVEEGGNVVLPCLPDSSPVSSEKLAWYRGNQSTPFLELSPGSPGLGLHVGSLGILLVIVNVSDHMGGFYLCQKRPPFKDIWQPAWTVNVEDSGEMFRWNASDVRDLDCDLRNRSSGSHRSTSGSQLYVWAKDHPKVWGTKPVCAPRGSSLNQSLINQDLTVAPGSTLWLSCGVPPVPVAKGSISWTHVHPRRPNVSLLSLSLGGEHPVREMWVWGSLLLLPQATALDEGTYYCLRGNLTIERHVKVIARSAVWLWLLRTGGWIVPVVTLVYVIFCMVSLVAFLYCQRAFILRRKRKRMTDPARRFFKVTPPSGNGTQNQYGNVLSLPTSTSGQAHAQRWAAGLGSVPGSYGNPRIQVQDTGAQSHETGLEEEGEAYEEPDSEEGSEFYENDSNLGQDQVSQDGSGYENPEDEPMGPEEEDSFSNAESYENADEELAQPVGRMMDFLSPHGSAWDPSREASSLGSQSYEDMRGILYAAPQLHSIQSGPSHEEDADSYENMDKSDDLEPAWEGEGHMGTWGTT

[2] = target: Lyn-kinase, endogenous, immunoprecipitated from WEHI-231 cells (UniProt P25911)
[3] = target: Syk, endogenous, from WEHI-231 cells (UniProt P48025)
Chain of Syk, endogenous, from WEHI-231 cells (P48025 whole entry, looked up): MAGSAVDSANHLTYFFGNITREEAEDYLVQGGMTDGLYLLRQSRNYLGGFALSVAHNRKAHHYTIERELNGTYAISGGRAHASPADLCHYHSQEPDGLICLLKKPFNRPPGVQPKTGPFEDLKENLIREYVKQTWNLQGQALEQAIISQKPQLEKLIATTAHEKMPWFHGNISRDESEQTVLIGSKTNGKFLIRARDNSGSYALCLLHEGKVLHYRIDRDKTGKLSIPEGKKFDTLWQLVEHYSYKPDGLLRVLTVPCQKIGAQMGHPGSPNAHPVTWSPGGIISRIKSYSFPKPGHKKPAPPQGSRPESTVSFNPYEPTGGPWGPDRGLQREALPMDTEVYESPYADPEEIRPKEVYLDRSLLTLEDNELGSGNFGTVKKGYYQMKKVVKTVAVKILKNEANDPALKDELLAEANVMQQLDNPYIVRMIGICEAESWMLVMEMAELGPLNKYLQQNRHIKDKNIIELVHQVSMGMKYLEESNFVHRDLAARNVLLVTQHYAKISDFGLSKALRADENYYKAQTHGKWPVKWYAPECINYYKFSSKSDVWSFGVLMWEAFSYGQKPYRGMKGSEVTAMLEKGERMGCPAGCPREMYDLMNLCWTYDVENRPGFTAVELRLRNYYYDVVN

Chain of Lyn-kinase, endogenous, immunoprecipitated from WEHI-231 cells (P25911 whole entry, looked up): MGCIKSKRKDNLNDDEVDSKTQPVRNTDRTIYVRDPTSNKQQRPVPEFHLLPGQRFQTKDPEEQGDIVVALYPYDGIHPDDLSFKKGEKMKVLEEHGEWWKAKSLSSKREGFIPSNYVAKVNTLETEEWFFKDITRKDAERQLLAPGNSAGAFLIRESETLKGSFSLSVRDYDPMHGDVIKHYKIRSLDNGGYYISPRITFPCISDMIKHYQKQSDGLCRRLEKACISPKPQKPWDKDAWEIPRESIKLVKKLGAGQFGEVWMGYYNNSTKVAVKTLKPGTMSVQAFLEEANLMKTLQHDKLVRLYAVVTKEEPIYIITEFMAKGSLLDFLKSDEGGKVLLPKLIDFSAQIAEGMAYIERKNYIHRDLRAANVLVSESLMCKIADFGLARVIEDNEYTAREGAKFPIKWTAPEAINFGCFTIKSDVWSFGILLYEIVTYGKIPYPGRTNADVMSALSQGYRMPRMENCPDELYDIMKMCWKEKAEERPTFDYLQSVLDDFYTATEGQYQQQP

In the case of “exogenous Lyn (5 units added to the kinase assay)”, the “phosphorylation level of immunoprecipitated CD19 (anti-phosphotyrosine Western blot) with exogenous Lyn and 0, 10, 50 and 100 µM K055H302” value [1] is reported as “Lyn, CD19 and Syk all showed dose-dependent decreased phosphorylation in the presence of the compound of the invention”, the “phosphorylation level of immunoprecipitated Lyn (anti-phosphotyrosine Western blot) with exogenous Lyn and 0, 10, 50 and 100 µM K055H302” value [2] is reported as “Lyn, CD19 and Syk all showed dose-dependent decreased phosphorylation in the presence of the compound of the invention” and the “phosphorylation level of immunoprecipitated Syk (anti-phosphotyrosine Western blot) with exogenous Lyn and 0, 10, 50 and 100 µM K055H302” value [3] is reported as “Lyn, CD19 and Syk all showed dose-dependent decreased phosphorylation in the presence of the compound of the invention”.
